T1: DFNB31_3, Q9P202
T1 sequence (Q9P202 811-907, limits assumed, looked up): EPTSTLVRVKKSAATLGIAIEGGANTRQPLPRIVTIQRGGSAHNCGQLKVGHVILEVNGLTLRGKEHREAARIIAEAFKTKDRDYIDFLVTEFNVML

T2: DLG3_2, Q92796
T2 sequence (Q92796 221-321, limits assumed, looked up): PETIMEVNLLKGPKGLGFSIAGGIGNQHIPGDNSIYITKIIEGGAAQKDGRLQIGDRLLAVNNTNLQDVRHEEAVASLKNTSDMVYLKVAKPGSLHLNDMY

T3: DVL3, Q92997
T3 sequence (Q92997 244-331, limits assumed, looked up): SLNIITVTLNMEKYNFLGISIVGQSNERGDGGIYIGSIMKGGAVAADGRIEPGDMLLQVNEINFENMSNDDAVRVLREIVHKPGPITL

T4: GRIP1_5, Q9Y3R0
T4 sequence (Q9Y3R0 568-668, limits assumed, looked up): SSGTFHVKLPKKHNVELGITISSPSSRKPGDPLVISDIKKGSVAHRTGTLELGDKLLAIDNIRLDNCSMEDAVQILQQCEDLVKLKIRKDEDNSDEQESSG

T5: LIN7C, Q9NUP9
T5 sequence (Q9NUP9 88-185, limits assumed, looked up): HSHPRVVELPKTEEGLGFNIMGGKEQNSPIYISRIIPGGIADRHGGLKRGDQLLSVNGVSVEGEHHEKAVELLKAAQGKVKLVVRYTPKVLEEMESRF

T6: LNX2_2, Q8N448
T6 sequence (Q8N448 334-432, limits assumed, looked up): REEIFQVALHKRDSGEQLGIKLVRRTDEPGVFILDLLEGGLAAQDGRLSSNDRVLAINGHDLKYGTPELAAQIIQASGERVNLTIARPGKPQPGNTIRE

T7: MPDZ_5, O75970
T7 sequence (O75970 695-796, limits assumed, looked up): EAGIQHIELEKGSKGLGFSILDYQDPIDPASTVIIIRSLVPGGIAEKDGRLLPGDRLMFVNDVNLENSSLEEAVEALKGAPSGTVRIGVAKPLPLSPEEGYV

T8: NHERF3_3, Q5T2W1
T8 sequence (Q5T2W1 238-333, limits assumed, looked up): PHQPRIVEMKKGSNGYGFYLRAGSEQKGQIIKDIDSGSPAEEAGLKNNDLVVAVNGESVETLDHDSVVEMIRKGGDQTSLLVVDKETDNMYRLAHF

T9: NHERF3_4, Q5T2W1
T9 sequence (Q5T2W1 373-468, limits assumed, looked up): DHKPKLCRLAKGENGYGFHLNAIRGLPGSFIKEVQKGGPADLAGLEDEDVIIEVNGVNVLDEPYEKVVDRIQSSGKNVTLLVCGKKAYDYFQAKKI

T10: SHANK1, Q9Y566
T10 sequence (Q9Y566 658-767, limits assumed, looked up): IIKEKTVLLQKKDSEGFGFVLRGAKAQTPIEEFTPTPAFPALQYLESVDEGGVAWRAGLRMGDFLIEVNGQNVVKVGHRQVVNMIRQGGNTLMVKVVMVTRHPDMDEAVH

T11: SIPA1L2, Q9P2F8
T11 sequence (Q9P2F8 945-1036, limits assumed, looked up): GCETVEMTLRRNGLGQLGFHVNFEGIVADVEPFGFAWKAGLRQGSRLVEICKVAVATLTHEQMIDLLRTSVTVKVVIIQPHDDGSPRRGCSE

T12: SNTB1, Q13884
T12 sequence (Q13884 107-205, limits assumed, looked up): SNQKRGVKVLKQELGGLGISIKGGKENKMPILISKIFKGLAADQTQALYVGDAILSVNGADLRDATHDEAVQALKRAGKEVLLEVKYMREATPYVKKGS

B1: KARS1, Q15046 (peptide)
chain: LESTTVGTSV
B2: FAM110B, Q8TC76 (peptide)
chain: ARESQKVSHV

Each binder was assayed against AHNAK1, Q09666 (assay: holdup assay). Conditions: plain residues with an end cap or a label only (N-terminal biotin on a linker: ado-ado).
Set-up: key: below the threshold = too weak to quantify, mostly under pKd 3.1 to 4

AHNAK1, Q09666, sequence (Q09666 4-100): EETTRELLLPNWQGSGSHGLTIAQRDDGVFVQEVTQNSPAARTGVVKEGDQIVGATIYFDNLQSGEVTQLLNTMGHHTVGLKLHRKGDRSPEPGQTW

Binder	pKd
B1	below the threshold
B2	below the threshold

What follows are binders tested against T1, DFNB31_3, Q9P202 (assay: holdup assay). Conditions: plain residues with an end cap or a label only (N-terminal biotin on a linker: ado-ado).
Set-up: key: below the threshold = too weak to quantify, mostly under pKd 3.1 to 4

Binder	pKd
B1	below the threshold
B2	below the threshold

Each binder was assayed against T2, DLG3_2, Q92796 (assay: holdup assay). Conditions: plain residues with an end cap or a label only (N-terminal biotin on a linker: ado-ado).
Set-up: key: below the threshold = too weak to quantify, mostly under pKd 3.1 to 4

Binder	pKd
B1	4.51
B2	4.22

What follows are binders tested against T3, DVL3, Q92997 (assay: holdup assay). Conditions: plain residues with an end cap or a label only (N-terminal biotin on a linker: ado-ado).
Set-up: key: below the threshold = too weak to quantify, mostly under pKd 3.1 to 4

Binder	pKd
B1	below the threshold
B2	below the threshold

These binders were tested against FRMPD2_3, Q68DX3 (assay: holdup assay). Conditions: plain residues with an end cap or a label only (N-terminal biotin on a linker: ado-ado).
Set-up: key: below the threshold = too weak to quantify, mostly under pKd 3.1 to 4

FRMPD2_3, Q68DX3, sequence (Q68DX3 1073-1166): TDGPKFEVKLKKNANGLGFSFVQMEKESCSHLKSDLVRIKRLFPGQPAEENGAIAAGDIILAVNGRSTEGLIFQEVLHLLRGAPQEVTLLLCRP

Binder	pKd
B1	below the threshold
B2	below the threshold

What follows are binders tested against FRMPD4, Q14CM0 (assay: holdup assay). Conditions: plain residues with an end cap or a label only (N-terminal biotin on a linker: ado-ado).
Set-up: key: below the threshold = too weak to quantify, mostly under pKd 3.1 to 4

FRMPD4, Q14CM0, sequence (Q14CM0 67-160): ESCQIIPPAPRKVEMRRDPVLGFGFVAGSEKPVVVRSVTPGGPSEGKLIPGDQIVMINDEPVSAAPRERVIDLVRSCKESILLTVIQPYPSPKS

Binder	pKd
B1	below the threshold
B2	below the threshold

Each binder was assayed against GORASP1, Q9BQQ3 (assay: holdup assay). Conditions: plain residues with an end cap or a label only (N-terminal biotin on a linker: ado-ado).
Set-up: key: below the threshold = too weak to quantify, mostly under pKd 3.1 to 4

GORASP1, Q9BQQ3, sequence (Q9BQQ3 1-208): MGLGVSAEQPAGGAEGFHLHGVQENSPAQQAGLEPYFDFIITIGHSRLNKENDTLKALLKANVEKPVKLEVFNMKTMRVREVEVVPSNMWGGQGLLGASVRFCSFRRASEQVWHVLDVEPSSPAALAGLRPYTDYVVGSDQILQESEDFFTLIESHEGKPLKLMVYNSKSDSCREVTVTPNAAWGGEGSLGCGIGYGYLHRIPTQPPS

Binder	pKd
B1	below the threshold
B2	3.8

What follows are binders tested against GORASP2, Q9H8Y8 (assay: holdup assay). Conditions: plain residues with an end cap or a label only (N-terminal biotin on a linker: ado-ado).
Set-up: key: below the threshold = too weak to quantify, mostly under pKd 3.1 to 4

Binder	pKd
B1	below the threshold
B2	4.88

Each binder was assayed against GRID2IP_1, A4D2P6 (assay: holdup assay). Conditions: plain residues with an end cap or a label only (N-terminal biotin on a linker: ado-ado).
Set-up: key: below the threshold = too weak to quantify, mostly under pKd 3.1 to 4

GRID2IP_1, A4D2P6, sequence (A4D2P6 1-87): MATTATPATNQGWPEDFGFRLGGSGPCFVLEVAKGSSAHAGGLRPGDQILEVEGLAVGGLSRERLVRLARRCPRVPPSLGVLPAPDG

Binder	pKd
B1	below the threshold
B2	below the threshold

The binders below were run against T4, GRIP1_5, Q9Y3R0 (assay: holdup assay). Conditions: plain residues with an end cap or a label only (N-terminal biotin on a linker: ado-ado).
Set-up: key: below the threshold = too weak to quantify, mostly under pKd 3.1 to 4

Binder	pKd
B1	below the threshold
B2	below the threshold

These binders were tested against GRIP2_3, Q9C0E4 (assay: holdup assay). Conditions: plain residues with an end cap or a label only (N-terminal biotin on a linker: ado-ado).
Set-up: key: below the threshold = too weak to quantify, mostly under pKd 3.1 to 4

GRIP2_3, Q9C0E4, sequence (Q9C0E4 238-339): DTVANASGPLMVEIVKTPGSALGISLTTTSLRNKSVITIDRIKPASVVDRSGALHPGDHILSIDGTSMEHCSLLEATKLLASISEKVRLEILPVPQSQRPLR

Binder	pKd
B1	below the threshold
B2	below the threshold

What follows are binders tested against Inadl_2, Q8NI35 (assay: holdup assay). Conditions: plain residues with an end cap or a label only (N-terminal biotin on a linker: ado-ado).
Set-up: key: below the threshold = too weak to quantify, mostly under pKd 3.1 to 4

Inadl_2, Q8NI35, sequence (Q8NI35 238-335): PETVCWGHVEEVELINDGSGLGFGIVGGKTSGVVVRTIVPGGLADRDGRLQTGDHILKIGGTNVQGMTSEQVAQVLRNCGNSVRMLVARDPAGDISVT

Binder	pKd
B1	below the threshold
B2	below the threshold

The binders below were run against T5, LIN7C, Q9NUP9 (assay: holdup assay). Conditions: plain residues with an end cap or a label only (N-terminal biotin on a linker: ado-ado).
Set-up: key: below the threshold = too weak to quantify, mostly under pKd 3.1 to 4

Binder	pKd
B1	below the threshold
B2	below the threshold

What follows are binders tested against LNX1_2, Q8TBB1 (assay: holdup assay). Conditions: plain residues with an end cap or a label only (N-terminal biotin on a linker: ado-ado).
Set-up: key: below the threshold = too weak to quantify, mostly under pKd 3.1 to 4

LNX1_2, Q8TBB1, sequence (Q8TBB1 371-470): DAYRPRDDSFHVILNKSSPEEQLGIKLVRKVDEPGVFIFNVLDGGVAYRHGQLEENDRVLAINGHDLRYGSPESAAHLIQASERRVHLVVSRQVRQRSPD

Binder	pKd
B1	below the threshold
B2	below the threshold

The binders below were run against T6, LNX2_2, Q8N448 (assay: holdup assay). Conditions: plain residues with an end cap or a label only (N-terminal biotin on a linker: ado-ado).
Set-up: key: below the threshold = too weak to quantify, mostly under pKd 3.1 to 4

Binder	pKd
B1	4.39
B2	4

Each binder was assayed against MAGI3_2, Q5TCQ9 (assay: holdup assay). Conditions: plain residues with an end cap or a label only (N-terminal biotin on a linker: ado-ado).
Set-up: key: below the threshold = too weak to quantify, mostly under pKd 3.1 to 4

MAGI3_2, Q5TCQ9, sequence (Q5TCQ9 398-503): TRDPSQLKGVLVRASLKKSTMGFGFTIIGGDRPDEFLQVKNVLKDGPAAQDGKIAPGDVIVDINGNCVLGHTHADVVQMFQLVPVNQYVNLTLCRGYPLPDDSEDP

Binder	pKd
B1	4.09
B2	5.28

These binders were tested against T7, MPDZ_5, O75970 (assay: holdup assay). Conditions: plain residues with an end cap or a label only (N-terminal biotin on a linker: ado-ado).
Set-up: key: below the threshold = too weak to quantify, mostly under pKd 3.1 to 4

Binder	pKd
B1	below the threshold
B2	below the threshold

Each binder was assayed against T8, NHERF3_3, Q5T2W1 (assay: holdup assay). Conditions: plain residues with an end cap or a label only (N-terminal biotin on a linker: ado-ado).
Set-up: key: below the threshold = too weak to quantify, mostly under pKd 3.1 to 4

Binder	pKd
B1	below the threshold
B2	below the threshold

Each binder was assayed against T9, NHERF3_4, Q5T2W1 (assay: holdup assay). Conditions: plain residues with an end cap or a label only (N-terminal biotin on a linker: ado-ado).
Set-up: key: below the threshold = too weak to quantify, mostly under pKd 3.1 to 4

Binder	pKd
B1	below the threshold
B2	below the threshold

What follows are binders tested against PICK1, Q9NRD5 (assay: holdup assay). Conditions: plain residues with an end cap or a label only (N-terminal biotin on a linker: ado-ado).
Set-up: key: below the threshold = too weak to quantify, mostly under pKd 3.1 to 4

PICK1, Q9NRD5, sequence (Q9NRD5 17-115): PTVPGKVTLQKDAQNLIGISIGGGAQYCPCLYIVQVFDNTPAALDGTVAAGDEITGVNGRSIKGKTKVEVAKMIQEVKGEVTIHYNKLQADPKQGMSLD

Binder	pKd
B1	below the threshold
B2	below the threshold

These binders were tested against SCRIB_2, Q14160 (assay: holdup assay). Conditions: plain residues with an end cap or a label only (N-terminal biotin on a linker: ado-ado).
Set-up: key: below the threshold = too weak to quantify, mostly under pKd 3.1 to 4

SCRIB_2, Q14160, sequence (Q14160 857-960): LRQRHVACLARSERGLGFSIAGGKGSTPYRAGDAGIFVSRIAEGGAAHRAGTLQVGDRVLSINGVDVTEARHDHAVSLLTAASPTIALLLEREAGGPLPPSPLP

Binder	pKd
B1	4.46
B2	below the threshold

Each binder was assayed against T10, SHANK1, Q9Y566 (assay: holdup assay). Conditions: plain residues with an end cap or a label only (N-terminal biotin on a linker: ado-ado).
Set-up: key: below the threshold = too weak to quantify, mostly under pKd 3.1 to 4

Binder	pKd
B1	3.71
B2	below the threshold

Each binder was assayed against T11, SIPA1L2, Q9P2F8 (assay: holdup assay). Conditions: plain residues with an end cap or a label only (N-terminal biotin on a linker: ado-ado).
Set-up: key: below the threshold = too weak to quantify, mostly under pKd 3.1 to 4

Binder	pKd
B1	below the threshold
B2	below the threshold

What follows are binders tested against T12, SNTB1, Q13884 (assay: holdup assay). Conditions: plain residues with an end cap or a label only (N-terminal biotin on a linker: ado-ado).
Set-up: key: below the threshold = too weak to quantify, mostly under pKd 3.1 to 4

Binder	pKd
B1	3.85
B2	4.52

Each binder was assayed against TJP1_2, Q07157 (assay: holdup assay). Conditions: plain residues with an end cap or a label only (N-terminal biotin on a linker: ado-ado).
Set-up: key: below the threshold = too weak to quantify, mostly under pKd 3.1 to 4

TJP1_2, Q07157, sequence (Q07157 181-274): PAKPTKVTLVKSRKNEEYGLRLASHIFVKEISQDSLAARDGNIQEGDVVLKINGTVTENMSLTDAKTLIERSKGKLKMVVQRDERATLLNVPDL

Binder	pKd
B1	below the threshold
B2	below the threshold
